Data from patent US20230064378A1.

Tests used:
[1] = molecular target: human FcγRIIIA_158F (CD16a) extracellular domain (human) (UniProt P08637); experiment: SPR, antibody captured on Protein A, steady state, 25 °C
[2] = molecular target: human FcγRIIb (CD32b) extracellular domain (human) (UniProt P31994); experiment: as above
[3] = molecular target: human FcγRIIA_131H (CD32a) extracellular domain (human) (UniProt P12318); experiment: as above
[4] = molecular target: human FcγRIIA_131R (CD32a) extracellular domain (human) (UniProt P12318); experiment: as above
Sequence of human FcγRIIA_131R (CD32a) extracellular domain (human) (P12318 34-217 H167R): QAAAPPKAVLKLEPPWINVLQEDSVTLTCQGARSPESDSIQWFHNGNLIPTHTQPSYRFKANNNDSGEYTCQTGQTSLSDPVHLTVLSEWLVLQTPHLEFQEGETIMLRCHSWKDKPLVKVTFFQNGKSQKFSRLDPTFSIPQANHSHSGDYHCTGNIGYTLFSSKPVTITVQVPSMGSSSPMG

[5] = molecular target: human FcγRI (CD64) extracellular domain (human) (UniProt P12314); experiment: SPR, antibody captured on Protein A, receptor ECD as analyte, 25 °C
Sequence of human FcγRI (CD64) extracellular domain (human) (P12314 16-292): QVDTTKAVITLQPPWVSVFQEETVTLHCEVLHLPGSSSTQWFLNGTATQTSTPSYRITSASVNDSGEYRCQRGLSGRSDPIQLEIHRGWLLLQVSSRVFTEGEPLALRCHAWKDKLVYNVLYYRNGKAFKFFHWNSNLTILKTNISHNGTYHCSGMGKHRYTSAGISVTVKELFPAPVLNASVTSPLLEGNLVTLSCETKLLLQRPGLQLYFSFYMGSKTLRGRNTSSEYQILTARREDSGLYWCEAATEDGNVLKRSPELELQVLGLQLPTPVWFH

[6] = molecular target: human FcγRIIIA_158V (CD16a) extracellular domain (human) (UniProt P08637); experiment: SPR, antibody captured on Protein A, steady state, 25 °C
Sequence of human FcγRIIIA_158V (CD16a) extracellular domain (human) (P08637 17-208 F176V): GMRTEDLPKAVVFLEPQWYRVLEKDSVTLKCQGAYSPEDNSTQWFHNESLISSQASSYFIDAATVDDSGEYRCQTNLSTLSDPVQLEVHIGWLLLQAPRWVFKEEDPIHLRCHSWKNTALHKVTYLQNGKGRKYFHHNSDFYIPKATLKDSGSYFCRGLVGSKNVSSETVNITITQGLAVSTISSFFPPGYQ

Sequence of human FcγRIIA_131H (CD32a) extracellular domain (human) (P12318 34-217): as the sequence (P12318 34-217 H167R) above, with R134H counted along it
Sequence of human FcγRIIb (CD32b) extracellular domain (human) (P31994 43-217): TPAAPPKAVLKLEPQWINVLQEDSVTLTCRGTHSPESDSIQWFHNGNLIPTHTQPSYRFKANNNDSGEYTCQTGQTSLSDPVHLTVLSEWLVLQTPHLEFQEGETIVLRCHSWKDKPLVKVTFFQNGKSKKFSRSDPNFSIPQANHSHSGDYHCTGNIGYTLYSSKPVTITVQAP
Sequence of human FcγRIIIA_158F (CD16a) extracellular domain (human) (P08637 17-208): as the sequence (P08637 17-208 F176V) above, with V160F counted along it

Substance | Kd [1] [nM] | Kd [2] [nM] | Kd [3] [nM] | Kd [4] [nM] | Kd [5] [nM] | Kd [6] [nM]
Hu IgG1 (antibody) | 1290 | 3110 | 680 | 740 | 0.0521 | 
Hu IgG4 SP (antibody) |  | 2780 | 5310 | 2310 | 0.419 | 7350
